In this data set the target is pSTAT3 (tyrosine-phosphorylated STAT3) (UniProt P40763). The data set can be described thus: SPR. As to conditions: PS x3 at 5' end of sense and 3' end of antisense; strands linked at one end by C-18 (18-atom hexa-ethyleneglycol) spacers; Langmuir 1:1, 4 C, 20 mM HEPES pH 7.0, 200 mM NaCl, 10 mM MgCl2.

This is an account of results in patent US20120288536.

Broadly, the Kd is the equilibrium constant for the complex coming apart. A high value points to weaker binding.

Chain of pSTAT3 (tyrosine-phosphorylated STAT3) (P40763 whole entry): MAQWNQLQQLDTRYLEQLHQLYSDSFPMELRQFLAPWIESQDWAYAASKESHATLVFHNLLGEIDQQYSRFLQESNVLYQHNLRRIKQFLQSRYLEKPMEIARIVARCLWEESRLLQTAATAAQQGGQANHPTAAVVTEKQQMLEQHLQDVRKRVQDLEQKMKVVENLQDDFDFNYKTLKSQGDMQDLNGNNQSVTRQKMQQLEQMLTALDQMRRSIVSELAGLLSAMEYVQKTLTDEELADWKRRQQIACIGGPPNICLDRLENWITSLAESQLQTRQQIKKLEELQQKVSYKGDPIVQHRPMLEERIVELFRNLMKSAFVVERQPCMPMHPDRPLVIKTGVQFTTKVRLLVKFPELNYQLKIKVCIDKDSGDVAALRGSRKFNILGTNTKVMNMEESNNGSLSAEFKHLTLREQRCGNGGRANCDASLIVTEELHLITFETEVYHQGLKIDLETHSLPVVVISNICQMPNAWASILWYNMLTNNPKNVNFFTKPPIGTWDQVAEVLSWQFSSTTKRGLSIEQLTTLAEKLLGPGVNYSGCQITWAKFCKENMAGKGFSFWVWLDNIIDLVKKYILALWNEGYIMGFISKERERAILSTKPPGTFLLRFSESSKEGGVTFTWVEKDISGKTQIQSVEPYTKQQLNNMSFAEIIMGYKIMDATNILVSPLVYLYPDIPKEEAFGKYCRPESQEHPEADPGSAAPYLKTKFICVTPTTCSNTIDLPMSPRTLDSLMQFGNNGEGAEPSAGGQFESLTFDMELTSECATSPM

Consider CATTTCCCGTAAATC (double strand) [DS18], for which the equilibrium dissociation constant (Kd) came out at 142 nM.
